Data set [1] concerns the molecule itself. As to the kind of experiment: sedimentation equilibrium, monomer-dimer equilibrium model, in the presence of 10 mM CaCl2; extrapolated dimer dissociation constant. An excerpt:
(§1) The hydroxyapatite lattice binding mode represented by the best solution presupposes that osteocalcin engages hydroxyapatite with the acidic Ca²⁺-coordinating surface as a monomer. In the crystal structure of porcine osteocalcin, however, the five Ca²⁺ ions are sandwiched between two crystallographically related protein molecules. If overly stable, this dimeric state could present an impediment to hydroxyapatite binding. To investigate whether porcine osteocalcin exists as a monomer or dimer in solution, sedimentation equilibrium analysis in the presence and absence of 10 mM CaCl₂ was carried out. In both cases, the sedimentation equilibrium data were best fitted to a monomer-dimer equilibrium model (FIG. 6). […] Theses Kd values are 2-3 orders of magnitude higher than the concentration of osteocalcin in human serum […],³¹ showing that osteocalcin exists as a monomer in vivo.

Data set [2] deals with the molecule itself. As to the kind of experiment: sedimentation equilibrium, monomer-dimer equilibrium model, in the absence of calcium; extrapolated dimer dissociation constant.
Description: as §1

Bridges are numbered along the chain shown (N, C = ends). Where no end group is shown, it is not given here. [ ]: non-standard residue; d: D form. Gla = N[C@@H](CC(C(=O)O)C(=O)O)C(=O)O

B1: porcine osteocalcin (other)
chain: YLDHGLGAPAPYPDPL[Gla]PRR[Gla]VC[Gla]LNPDCDELADHIGFQEAYRRFYGIA
modifications: disulfide 23-29; not fully specified
notes: the entries describe its self-association into a dimer; In the crystal only residues 13-49 are ordered (residues 1 to 12 missing from the model); also called pOC; POC13-49 (part seen in the crystal structure)
With B1, the values for the Kd in data set [1] and in data set [2] were 200 µM and 800 µM, respectively.
